Experimental data published in US20240287484.

Experiments:
Conditions in all cases: qPCR; 3 mM MgCl2, 37 C
[1] = tested on: T1, MG153-11 RT (uncultivated organism (metagenomic))
T1 sequence: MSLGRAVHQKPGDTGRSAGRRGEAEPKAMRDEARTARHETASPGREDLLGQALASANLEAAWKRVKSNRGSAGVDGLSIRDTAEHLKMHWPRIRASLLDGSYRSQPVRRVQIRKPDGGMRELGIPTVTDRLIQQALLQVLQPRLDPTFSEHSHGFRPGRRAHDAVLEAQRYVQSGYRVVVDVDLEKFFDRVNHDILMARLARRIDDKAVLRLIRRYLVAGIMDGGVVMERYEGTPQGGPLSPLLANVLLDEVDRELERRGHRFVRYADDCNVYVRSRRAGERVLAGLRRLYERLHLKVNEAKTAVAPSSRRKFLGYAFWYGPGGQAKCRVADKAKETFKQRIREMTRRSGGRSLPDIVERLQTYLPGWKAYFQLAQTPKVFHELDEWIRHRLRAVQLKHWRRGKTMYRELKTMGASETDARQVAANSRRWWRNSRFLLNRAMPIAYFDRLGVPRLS

[2] = tested on: T2, MG153-19 RT (uncultivated organism (metagenomic))
T2 sequence: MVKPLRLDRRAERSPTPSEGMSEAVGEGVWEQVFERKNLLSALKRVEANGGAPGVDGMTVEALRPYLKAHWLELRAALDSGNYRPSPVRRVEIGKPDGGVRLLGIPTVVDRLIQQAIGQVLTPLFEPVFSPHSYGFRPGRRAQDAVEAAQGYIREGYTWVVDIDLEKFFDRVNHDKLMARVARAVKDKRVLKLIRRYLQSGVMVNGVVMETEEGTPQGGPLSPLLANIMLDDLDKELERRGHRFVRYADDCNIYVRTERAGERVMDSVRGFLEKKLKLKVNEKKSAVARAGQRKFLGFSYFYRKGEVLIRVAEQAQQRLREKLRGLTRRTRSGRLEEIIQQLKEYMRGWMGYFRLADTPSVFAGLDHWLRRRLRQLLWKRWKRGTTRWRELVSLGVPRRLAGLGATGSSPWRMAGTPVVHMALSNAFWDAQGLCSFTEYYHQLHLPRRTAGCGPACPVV

[3] = tested on: T3, MG153-26 RT (uncultivated organism (metagenomic))
T3 sequence: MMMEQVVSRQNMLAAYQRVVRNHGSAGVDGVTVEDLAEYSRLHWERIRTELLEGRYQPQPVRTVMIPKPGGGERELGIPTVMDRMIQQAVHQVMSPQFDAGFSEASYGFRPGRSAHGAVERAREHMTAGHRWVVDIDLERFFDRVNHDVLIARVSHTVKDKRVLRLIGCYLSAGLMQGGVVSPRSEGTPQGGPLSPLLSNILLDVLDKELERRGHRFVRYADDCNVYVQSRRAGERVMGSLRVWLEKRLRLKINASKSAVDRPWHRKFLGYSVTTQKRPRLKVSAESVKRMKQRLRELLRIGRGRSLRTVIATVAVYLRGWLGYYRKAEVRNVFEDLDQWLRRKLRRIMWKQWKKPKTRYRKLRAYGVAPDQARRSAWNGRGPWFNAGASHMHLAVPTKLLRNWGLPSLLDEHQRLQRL

[4] = tested on: T4, MG153-39 RT (uncultivated organism (metagenomic))
T4 sequence: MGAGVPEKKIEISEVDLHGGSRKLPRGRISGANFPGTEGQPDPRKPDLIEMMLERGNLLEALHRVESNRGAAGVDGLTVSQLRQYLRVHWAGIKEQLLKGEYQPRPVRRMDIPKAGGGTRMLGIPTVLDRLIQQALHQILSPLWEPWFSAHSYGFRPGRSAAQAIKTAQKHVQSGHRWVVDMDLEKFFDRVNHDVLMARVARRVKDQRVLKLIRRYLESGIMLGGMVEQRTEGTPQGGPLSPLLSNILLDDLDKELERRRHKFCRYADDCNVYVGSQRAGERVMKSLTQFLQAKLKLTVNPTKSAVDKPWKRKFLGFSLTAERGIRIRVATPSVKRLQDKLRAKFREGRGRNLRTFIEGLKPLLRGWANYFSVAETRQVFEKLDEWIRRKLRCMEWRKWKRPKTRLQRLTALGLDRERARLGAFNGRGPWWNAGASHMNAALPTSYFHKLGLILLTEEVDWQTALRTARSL

[5] = tested on: T5, MG153-43 RT (uncultivated organism (metagenomic))
T5 sequence: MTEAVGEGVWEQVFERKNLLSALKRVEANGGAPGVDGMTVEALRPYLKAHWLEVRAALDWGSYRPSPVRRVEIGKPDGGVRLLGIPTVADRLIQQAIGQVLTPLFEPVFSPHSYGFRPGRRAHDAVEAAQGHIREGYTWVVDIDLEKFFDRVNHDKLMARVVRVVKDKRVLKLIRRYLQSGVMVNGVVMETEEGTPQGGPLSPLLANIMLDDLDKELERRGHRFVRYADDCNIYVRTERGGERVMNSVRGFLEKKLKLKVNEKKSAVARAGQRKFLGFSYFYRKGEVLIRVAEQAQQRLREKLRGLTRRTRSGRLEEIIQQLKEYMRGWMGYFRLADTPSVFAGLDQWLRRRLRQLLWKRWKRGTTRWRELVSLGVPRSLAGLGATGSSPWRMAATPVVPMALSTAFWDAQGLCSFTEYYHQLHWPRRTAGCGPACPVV

[6] = tested on: T6, MG153-50 RT (uncultivated organism (metagenomic))
T6 sequence: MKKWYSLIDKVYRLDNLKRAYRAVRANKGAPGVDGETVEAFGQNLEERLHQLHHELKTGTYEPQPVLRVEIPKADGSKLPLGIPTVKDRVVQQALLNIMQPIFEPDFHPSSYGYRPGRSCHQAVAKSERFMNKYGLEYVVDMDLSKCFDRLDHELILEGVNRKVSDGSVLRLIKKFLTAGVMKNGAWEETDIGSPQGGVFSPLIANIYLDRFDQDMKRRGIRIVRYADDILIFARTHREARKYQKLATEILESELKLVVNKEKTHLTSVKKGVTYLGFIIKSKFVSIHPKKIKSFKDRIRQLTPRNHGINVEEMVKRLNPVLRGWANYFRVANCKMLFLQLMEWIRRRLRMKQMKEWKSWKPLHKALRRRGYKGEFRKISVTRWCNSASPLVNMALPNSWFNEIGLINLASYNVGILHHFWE

Measured: activity (fold over background)

200 nt RNA template annealed to DNA primer
> 10: [1] | [2] | [3] | [4] | [5] | [6]
